In the supplement of paper PMC10724198:

How the values were obtained:
Saccharomyces cerevisiae [1] = assay: protein stability index of tFT-peptide fusion in wild type (PSI (0-1 scale)); higher = more stable (slower turnover); conditions: genetic background: wild type
Description: (§1)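 MPS profiling in S. cerevisiae of two library types built from selected 12-aa C-degron peptides (IN1, IN2, LN1, LN3, VN2, R1-R5, W1-W3, Atg1 and Rpa12 C-termini): saturation mutagenesis libraries and C-terminal +1 capping libraries (13 aa). Each peptide is fused to the C-terminus of a sfGFP-mCherry timer, after a GGGS linker. Cells are FACS-sorted into 8 mCherry/sfGFP bins and sequenced. PSI runs from 0 (unstable) to 1 (stable), measured once in wild type and in the das1Δ or doa10Δ background.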

Saccharomyces cerevisiae [2] = assay: protein stability index of tFT-peptide fusion in deletion strain of DAS1 (PSI (0-1 scale)); higher = more stable (slower turnover)
Description: as §1
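For protein stability index of tFT-peptide fusion in deletion strain of DAS1 in this document: PSI is a weighted mean of each variant's read distribution over the sorted stability bins, computed only for variants having over 10 reads in total.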
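For protein stability index of tFT-peptide fusion in wild type in this document: PSI derived as read-weighted mean over the 8 sorting bins, only variants exceeding 10 total reads kept, mCherry placed adjacent to the peptide and sfGFP distal.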

Sequence	protein stability index (Saccharomyces cerevisiae [1])	protein stability index (Saccharomyces cerevisiae [2])
CMSCGYKFRTNN	0.228	0.71
PDKRNHLIKLLM	0.112	0.586
LKILMQKMNHQN	0.244	0.687
CTSCGYKFRQNN	0.497	0.69
PSLAASFPRVVG	0.659	0.66
LVVYLSCVAGIN	0.13	0.154
PNLAASFWRVVG	0.144	0.694
KKHKKGQKQKIV	0.136	0.596
FSMRWTFRYWVND	0.539	0.557
FSMCWTFRYWVN	0.0491	0.412
LKILQQKMNHQN	0.163	0.676
RLIQPLPMQFLN	0.0399	0.636
LVVYLSCVAQIN	0.014	0.0252
KKHKKNQKQKIN	0.217	0.585
FSMRKTFRYWVN	0.0767	0.577
PQLAASFWRVVG	0.152	0.7
MKILRQKMNHQN	0.163	0.66
LVVYLSEVACIN	0.264	0.286
MRGAVGGWRLVG	0.146	0.653
FSMRWTFRYPVN	0.548	0.555

Sequence	protein stability index (Saccharomyces cerevisiae [1])	protein stability index (Saccharomyces cerevisiae [2])
VRGAVGGWRLVL	0.572	0.68
RLIQPLPVQFLA	0.139	0.589
PSLAASFWPVVG	0.656	0.706
PSLAACFWRVVG	0.141	0.675
LVSYLSCVACIN	0.0799	0.252
RLIQPCPVQFLN	0.0722	0.612
PDKRNHLIKLLV	0.118	0.618
LKILWQKMNHQN	0.206	0.67
CTSCGYKFRTCN	0.18	0.702
FSMRPTFRYWVN	0.12	0.562
PSLAAVFWRVVG	0.146	0.665
LVKYLSCVACIN	0.09	0.365
KKHKKGQKQKTN	0.472	0.619
PDKRNHLIKLYN	0.343	0.599
VRGAVGGWRLGG	0.69	0.628
KKHKKGQKQVIN	0.579	0.629
LSLAASFWRVVG	0.129	0.664
RLIQPLPVQFTN	0.377	0.723
CTSCGYKFRTNNH	0.687	0.706
RLIQPLPKQFLN	0.103	0.559

Sequence	protein stability index (Saccharomyces cerevisiae [1])	protein stability index (Saccharomyces cerevisiae [2])
LVVYLSAVACIN	0.0153	0.0365
FSERWTFRYWVN	0.122	0.604
LVVYCSCVACIN	0.0182	0.0283
FSMRWMFRYWVN	0.094	0.528
PCLAASFWRVVG	0.128	0.68
KKHKKGQKQKIM	0.179	0.609
PSLGASFWRVVG	0.207	0.696
KKHKKGAKQKIN	0.0819	0.608
LIILRQKMNHQN	0.152	0.661
PSLAASFWRVVV	0.144	0.687
KFHKKGQKQKIN	0.139	0.576
PDKRNHDIKLLN	0.407	0.606
PSLSASFWRVVG	0.176	0.692
RLIQPLPVQFEN	0.627	0.603
ARWRVGFWRGAS	0.551	0.666
KKHKKGHKQKIN	0.111	0.592
LKILRVKMNHQN	0.187	0.646
ARWRVSLWRGAS	0.268	0.687
LKILRQKMNHGN	0.47	0.672
